We go through three molecules from patent US11999794B2, “Human mesothelin chimeric antigen receptors and uses thereof” (Novartis AG, priority 2013, dated 2024).

“Also recorded” adds a separate entry of the source.

Data set [1] relates to mesoCAR TILs against EMMESO tumor cells. Put plainly: Ex vivo killing and cytokine release assays with blocking agents. It is filed as cell-based, human. To be noted: blocking agent added ex vivo. How it is done: T cell Effector Assays. Effector T cells were cocultured with firefly luciferase expressing tumor cells at different ratios for a specified period time. At the end of the co-culture incubation period, supernatant was saved for IFN levels by ELISA (Biolegend #430106), wells were washed, and remaining tumor cells were lysed with 1× cell lysis buffer for 30 minutes. The luciferase activity in the lysates was analyzed using the Luciferase Assay System on a GloMax Multi Detection System (Promega.) Results are reported as percent killing based on luciferase activity in wells with tumor, but no T cells. (% killing=100-((RLU from well with effector and target cell coculture)/(RLU from well with target cells)×100)). Effector-to-target ratios represent total T cells per target cell.
Given these expression data, the potential functional importance of specific inhibitory pathways in mesoCAR TILs was studied by introducing available blocking agents during the ex vivo killing and cytokine release assays. […] The relatively high dose of 10 ug/ml anti-PDL1 antibody was based on previously published investigations on cancer immunotherapy.

Data set [2] can be described thus: Size exclusion chromatography (oligomerization state of expressed scFvs). It counts as physicochemical. To be noted: purified scFv. As for the experimental part:
Size exclusion chromatography was performed to determine the oligomerization states of the expressed scFvs. 25 μg each was injected onto a TSKGel Super SW3000 4.6 mm×300 mm column (Tosoh Bioscience) heated to 35° C. The scFvs were eluted at 0.3 mL/min in 750 mM arginine, 1 mM EDTA, 20 mM sodium phosphate, 250 mM sodium chloride, pH 7.2; the UV absorbance was monitored at 280 nm.

For the next data set, the system named is Ovcar8. Put plainly: Ovcar8 xenograft model (Example 8). It counts as in vivo, NSG mice. To be noted: OVCAR8-mcherry; 10×10^6 T cells, about 4×10^6 CART cells. As for the experimental part:
Anti-tumor activity of CART-MSLN was assessed in vivo in an Ovcar8 xenograft model. 10×10^6 Ovcar8 cells were implanted subcutaneously on day 0 in NSG mice. At day 14, 2×10^6 CART cells (CARTs expressing M5, M11, M17, M21, SS1, and CD19, or untransduced cells; 10×10^6 total T cells) in a 100 μl dose was administered intravenously. Mice and tumors were monitored for about 40 days after tumor cell implantation.
A second in vivo xenograft experiment was performed to assess the anti-tumor activity of a second set of CART-MSLN cells. 10×10^6 OVCAR8-mcherry cells were injected into NSG mice. Once tumors were 150-250 mm^2, mice were randomized into treatment groups. CARTs expressing M12, M14, M16, M23, ss1, CD19, or untreated cells were injected at a dose of 10×10^6 T cells in 100 μl. About 40% of T cells were expressing CAR, and therefore at the administered dosage, about 4×10^6 CART cells were delivered to each animal.

The target of data set [3] is T1, biotinylated mesothelin ECD (Homo sapiens, UniProt Q13421).
T1 construct: made in house; host or cells: HEK293F (transient)
T1 sequence (Q13421 with tags, fused parts or gaps): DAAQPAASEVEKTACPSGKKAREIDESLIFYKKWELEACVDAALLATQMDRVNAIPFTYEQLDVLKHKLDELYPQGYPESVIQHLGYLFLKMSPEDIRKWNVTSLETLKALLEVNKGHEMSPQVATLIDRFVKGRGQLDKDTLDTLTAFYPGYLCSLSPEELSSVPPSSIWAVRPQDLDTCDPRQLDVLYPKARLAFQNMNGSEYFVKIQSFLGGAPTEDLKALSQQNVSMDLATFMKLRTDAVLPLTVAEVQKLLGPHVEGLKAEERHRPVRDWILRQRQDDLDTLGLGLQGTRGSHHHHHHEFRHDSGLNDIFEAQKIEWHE
Put plainly: SPR relative epitope binning in comparison to SS1. To be noted: 50 nM SS1 captured first, then scFv at 100 nM. It counts as binding. As for the experimental part:
In embodiments, the competition assay is an SPR-based assay. Briefly, the antigen, e.g., human mesothelin, is immobilized on a surface. Through a microflow system, a reference antibody is injected over the antigen layer. Upon binding of the reference antibody to the antigen, an increase in signal, typically expressed in response units (RU) is detected, e.g., reference signal. After a desired time, a test antibody is injected over the antigen layer. If the test antibody binds to a different region or epitope of the antigen, then an additional increase in signal is detected, e.g., a 5% or more, 10% or more, 15% or more, 20% or more, 25% or more, 30% or more, 35%, or more, 40% or more, 45% or more, 50% or more, 55% of more, 60% or more, 65% or more, 70% or more, 75% or more, 80% or more, 85% or more, 90% or more, or 95% or more increase in signal, e.g., RU, as compared to the highest signal detected upon binding of the reference antibody, e.g., the reference signal. If the test antibody binds to the same region or epitope of the antigen, then little or no increase in signal, e.g., RU, will be detected, e.g., less than 20%, less than 15%, less than 10%, less than 5%, less than 4%, less than 3%, less than 2%, or less than 1% increase in signal, e.g., RU, as compared to the highest signal detected upon binding of the reference antibody, e.g., the reference signal. When using this SPR-based competition assay, an antibody is said to compete with the reference antibody when less than 20%, less than 15%, less than 10%, less than 5%, less than 4%, less than 3%, less than 2%, or less than 1% increase in signal, e.g., RU, is detected when compared to the reference signal detected upon binding of the reference antibody to the antigen. An antibody is said to not compete, or compete poorly, with a reference antibody when a 5% or more, 10% or more, 15% or more, 20% or more, 25% or more, 30% or more, 35%, or more, 40% or more, 45% or more, 50% or more, 55% of more, 60% or more, 65% or more, 70% or more, 75% or more, 80% or more, 85% or more, 90% or more, or 95% or more increase in signal, e.g., RU, is detected when compared to the reference signal detected upon binding of the reference antibody to the antigen.
To determine the relative binding epitope of each of the scFvs in comparison to SS1, 50 nM SS1 was captured by biotinylated mesothelin ECD immobilized on a streptavidin sensor chip at a contact time of 180 seconds resulting in a relative density of 70 RU. Purified scFv at 100 nM (M5, M11, M12, M14, M16, M17, M21, or M23) was then immediately injected over the chip to minimize dissociation of the SS1/mesothelin complex. Binding of the secondary scFv was monitored for 270 seconds.

Data set [4] has as its target T1, biotinylated mesothelin ECD. The data set can be described thus: Surface plasmon resonance (Biacore T200) binding affinity of purified scFvs. To be noted: for Kd: 1:1 Binding or Steady State Affinity fit. As for the experimental part: Binding affinity of purified scFvs was measured on a Biacore T200 system. Briefly, recombinant human biotinylated mesothelin ECD was immobilized on a streptavidin (SA) sensor chip surface at a density of 150 RU. Purified scFv was injected over the chip under constant flow rate at three-fold serial dilutions. Association and dissociation rates of the protein complex were monitored for 270 seconds and 400 seconds, respectively. Double referencing was performed against a blank immobilized flow cell and a buffer blank. Affinity was determined with a Langmuir 1:1 binding model when possible, for those scFVs where accurate fitting was not possible due to fast on and off rates, the steady state model was used.

Take `O.O.O.O.O.O.O.O.O.O=C([O-])[C@@H]1[O][Sb]2([O-])([O][Sb]34([OH])[O][C@H]([C@H](O)CO)[C@H]([O]3)[C@H](C(=O)[O-])[O]4)[O][C@H]([C@H](O)CO)[C@@H]1[O]2.[Na+].[Na+].[Na+]` [SSG, sodium stibogluconate]: in data set [1], the “killing ability of cryo mesoCAR T cells” value is on record as “slightly inhibited”, the “killing activity of mesoCAR TILs” value is reported as “significantly increased” and the “tumor-induced IFN secretion of mesoCAR TILs” value is reported as “significantly increasing”.

B1: M16: human anti-mesothelin scFv SEQ ID NO: 54; full CAR SEQ ID NO: 78 (protein)
scFv: EVQLVESGGGLVQPGRSLRLSCAASGFTFDDYAMHWVRQAPGKGLEWVSGISWNSGSTGYADSVKGRFTISRDNAKNSLYLQMNSLRAEDTALYYCAKDSSSWYGGGSAFDIWGQGTMVTVSSGGGGSGGGGSGGGGSSSELTQEPAVSVALGQTVRITCQGDSLRSYYASWYQQKPGQAPVLVIFGRSRRPSGIPDRFSGSSSGNTASLIITGAQAEDEADYYCNSRDNTANHYVFGTGTKLTVL
For B1, the “% Monomer (SEC)” value in data set [2] stood at 94.5%. The “effect on tumor growth, second xenograft experiment” value in the data set on Ovcar8 is listed as “did not have an effect on tumor growth”. For the same molecule, the “relative epitope binning against SS1 on human mesothelin” value in data set [3] is “Competitive binding; also recorded: competitive binders with SS1”. In data set [4] (1:1 Binding fit), this molecule registered a ka of 174000 M⁻¹ s⁻¹ and a kd of 0.00395 s⁻¹. In data set [4], this molecule displayed a Kd of 22.7 nM.

B2: M23: human anti-mesothelin scFv SEQ ID NO: 61; CDRs in Tables 4 and 5 (protein)
scFv: QVQLQQSGAEVKKPGASVKVSCKASGYTFTNYYMHWVRQAPGQGLEWMGIINPSGGYTTYAQKFQGRLTMTRDTSTSTVYMELSSLRSEDTAVYYCARIRSCGGDCYYFDNWGQGTLVTVSSGGGGSGGGGSGGGGSGGGGSDIQLTQSPSTLSASVGDRVTITCRASENVNIWLAWYQQKPGKAPKLLIYKSSSLASGVPSRFSGSGSGAEFTLTISSLQPDDFATYYCQQYQSYPLTFGGGTKVDIK
On to B2, for which the “% Monomer (SEC)” value in data set [2] is 91%. The “effect on tumor growth, second xenograft experiment” value with Ovcar8 is listed as “did not have an effect on tumor growth”. Further, the “relative epitope binning against SS1 on human mesothelin” value in data set [3] is “Competitive binding; also recorded: competitive binders with SS1”. The molecule also showed a Kd in data set [4] of 114 nM.

By Kd is commonly meant the concentration at which binding is half-saturated. Low values mean higher affinity, high ones lower affinity.
